From US20260049134A1 (UNIVERSITY OF FLORIDA RESEARCH FOUNDATION, published 2026)
Positions count from the first letter of the chain named. Numbers in names are those of the source.

T1: GARS, endogenous in H929 multiple myeloma cells (human, UniProt P41250 37-739, limits assumed)
T1 construct: Native protein pulled down from H929 lysates; also called Glycyl-tRNA synthetase; GlyRS
T1 sequence: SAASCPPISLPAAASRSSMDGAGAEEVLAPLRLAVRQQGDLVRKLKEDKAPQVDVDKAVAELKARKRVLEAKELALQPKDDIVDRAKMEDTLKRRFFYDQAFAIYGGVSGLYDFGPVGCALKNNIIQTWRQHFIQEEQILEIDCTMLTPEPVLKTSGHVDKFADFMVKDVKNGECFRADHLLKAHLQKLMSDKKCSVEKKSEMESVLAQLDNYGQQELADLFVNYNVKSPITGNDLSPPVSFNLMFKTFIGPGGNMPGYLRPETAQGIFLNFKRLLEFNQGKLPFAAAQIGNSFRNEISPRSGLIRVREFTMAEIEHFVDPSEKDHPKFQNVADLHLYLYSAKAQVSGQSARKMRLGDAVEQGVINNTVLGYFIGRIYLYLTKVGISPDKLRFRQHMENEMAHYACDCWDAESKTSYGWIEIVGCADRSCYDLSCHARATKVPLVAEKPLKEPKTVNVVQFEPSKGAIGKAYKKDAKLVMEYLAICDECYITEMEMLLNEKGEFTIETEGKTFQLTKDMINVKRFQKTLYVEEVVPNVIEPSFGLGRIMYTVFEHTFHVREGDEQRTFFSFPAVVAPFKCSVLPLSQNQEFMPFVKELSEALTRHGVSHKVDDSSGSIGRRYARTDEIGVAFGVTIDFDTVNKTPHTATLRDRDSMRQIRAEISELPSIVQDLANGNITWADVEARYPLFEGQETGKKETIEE

T2: DCC
T2 construct: also called DCC-His (R&D Systems)
T2 chain: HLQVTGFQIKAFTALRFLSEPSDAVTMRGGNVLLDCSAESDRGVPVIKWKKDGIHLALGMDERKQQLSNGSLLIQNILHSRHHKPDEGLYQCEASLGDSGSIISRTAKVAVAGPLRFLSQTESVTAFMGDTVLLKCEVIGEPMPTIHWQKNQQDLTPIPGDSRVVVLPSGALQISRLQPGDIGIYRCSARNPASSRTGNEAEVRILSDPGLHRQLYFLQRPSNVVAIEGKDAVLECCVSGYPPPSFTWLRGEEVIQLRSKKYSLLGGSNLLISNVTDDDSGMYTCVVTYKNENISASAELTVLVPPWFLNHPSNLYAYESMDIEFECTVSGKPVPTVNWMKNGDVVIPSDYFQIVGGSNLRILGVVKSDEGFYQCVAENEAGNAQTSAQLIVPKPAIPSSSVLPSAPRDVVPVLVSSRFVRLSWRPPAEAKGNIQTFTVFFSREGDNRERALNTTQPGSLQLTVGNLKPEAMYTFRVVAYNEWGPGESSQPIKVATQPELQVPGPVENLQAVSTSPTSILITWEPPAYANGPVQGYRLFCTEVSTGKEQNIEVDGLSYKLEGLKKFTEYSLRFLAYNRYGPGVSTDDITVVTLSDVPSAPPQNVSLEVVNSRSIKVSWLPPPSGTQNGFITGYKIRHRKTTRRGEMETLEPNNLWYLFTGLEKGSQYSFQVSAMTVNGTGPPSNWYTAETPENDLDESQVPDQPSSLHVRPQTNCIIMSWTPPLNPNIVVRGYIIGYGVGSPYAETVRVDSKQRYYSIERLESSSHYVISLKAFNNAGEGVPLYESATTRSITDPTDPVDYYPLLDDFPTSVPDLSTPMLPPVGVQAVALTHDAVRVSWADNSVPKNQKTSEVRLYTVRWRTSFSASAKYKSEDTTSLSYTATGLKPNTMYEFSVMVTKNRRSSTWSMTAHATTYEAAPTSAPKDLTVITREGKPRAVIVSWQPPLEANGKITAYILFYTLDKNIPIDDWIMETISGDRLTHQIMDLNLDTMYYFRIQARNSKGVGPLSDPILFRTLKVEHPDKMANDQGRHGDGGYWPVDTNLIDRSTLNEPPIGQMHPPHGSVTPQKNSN

T3: ANXA1
T3 construct: also called ANXA1-His (R&D Systems); not shown: His tag
T3 chain: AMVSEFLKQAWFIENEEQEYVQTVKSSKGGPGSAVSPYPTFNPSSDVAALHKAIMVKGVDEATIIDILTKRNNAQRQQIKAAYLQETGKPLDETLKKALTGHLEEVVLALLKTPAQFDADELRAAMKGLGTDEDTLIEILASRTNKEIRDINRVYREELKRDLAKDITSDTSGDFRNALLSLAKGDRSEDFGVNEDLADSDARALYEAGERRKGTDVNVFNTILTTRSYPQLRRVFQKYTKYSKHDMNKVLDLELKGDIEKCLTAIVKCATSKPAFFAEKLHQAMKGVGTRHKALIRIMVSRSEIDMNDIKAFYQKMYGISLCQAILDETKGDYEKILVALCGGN

T4: GARS-His (Sino Biological) (human, UniProt P41250 37-739, limits assumed)
T4 construct: Bought; also called GARS1; glycyl-tRNA synthetase; not shown: His tag of the bought protein
T4 sequence: T1 sequence

B1: HW-56 chimeric rabbit-human IgG1 LA/LA/PG (antibody, V domains shown)
VH: QSVKESEGGLFKPTDTLTLTCTASGFTVSTNAVTWVRQAPGNGLEYIGTIGRSGSAYFASWAKRRSTLTRDINLNTVTLKMTSLTAADTATYFCVRGSPGYRTAISIWGPGTLVTISS
VL: AVMTQTPSSTSAAVEGTVTINCQASQSISNRLSWFQQKPGQPPKLLIYQASTLASGVPSRFKGSGSGTEFTLTISGVQREDAATYYCLGSYSSSDASFGGGTKLEIKR
notes: Fc-silenced (L234A/L235A/P329G) IgG1, kappa; Alexa Fluor 647-labeled in single-step flow cytometry; Cluster C-45
B2: HW-42 chimeric rabbit-human IgG1 LA/LA/PG (antibody, V domains shown)
VH: QSVKESEGGLFKPADTLTLTCTVSGFSLSSNEISWVRQAPGEGLEYIGIIDTGGRAYYAVWARSRSTITRNTNLNTVTLKMTSLTAADTATYFCARGGVDTEWYAFSSWGPGTLVTVPS
VL: SFVLTQPASVQVNLGQTVSLTCTADTLSRRYASWYQQKPGQAPVLLIFRDTSRPSGVPDRFSGSSSGDTATLTISGAQAGDEADYYCATSDGSGSNYQYVFGGGTQLTVTG
notes: Fc-silenced (L234A/L235A/P329G) IgG1, lambda; Alexa Fluor 647-labeled in single-step flow cytometry; Cluster C-1
B3: HW-113 chimeric rabbit-human IgG1 LA/LA/PG (antibody, V domains shown)
VH: QKQLVESGGGLVQPGGSLTLTCTVSGFSLNKYYMGWFRQAPGKGLEWIGVISRSGDTYYSSWAKGRFTISKASTTVDLRITSPTTEDTATYFCARDASSPGFHGDRLDLWGQGTLVTVSS
VL: B2 VL with R30S, F48Y, D68N, S93I, Q98L, Y99W
notes: Fc-silenced (L234A/L235A/P329G) IgG1, lambda; Alexa Fluor 647-labeled in single-step flow cytometry
B4: HW-70 chimeric rabbit-human IgG1 LA/LA/PG (antibody, V domains shown)
VH: QSLEESGGRLVTPGTPLTLTCTVSGFSLSSNAMSWVRQAPGKGLEWIGTIDGYGYTYYASWAKGRFTVSKTSTTVDLKITSPTTEDTATYFCAREIYLGSNFWGPGTLVTISS
VL: B2 VL with F48Y, D68N, S90A, N96S, Y99F
notes: as for B2
B5: HW-25 chimeric rabbit-human IgG1 LA/LA/PG (antibody, V domains shown)
VH: QSLEESGGRLVTPGTPLTLTCTVSGFSLSSYAMGWVRQAPGKGLEWIGIIDSRGSTYYATWAKGRFTISKTSTTVDLKITSPTTEDTATYFCAREDSYYYDSFNLWGPGTLVTVSS
VL: B2 VL with F48Y, D68N, N96S, Y99C
notes: as for B2
B6: HW-1 chimeric rabbit-human IgG1 LA/LA/PG (antibody, V domains shown)
VH: QSLEESGGGLFKPTDTLTLTCTASGFSLGSSYAISWVRQAPGKELEWIGTIDSGRAYYARWAKSRSTITRNTNENTVTLKMTSLTAADTATYFCARDLIPTYSQDIWGPGTLVTISS
VL: B2 VL with F48Y, D68N, S95N, N96S, G111S
notes: Fc-silenced (L234A/L235A/P329G) IgG1, lambda; Alexa Fluor 647-labeled in single-step flow cytometry; Prototype of cluster C-1
B7: HW-45 chimeric rabbit-human IgG1 LA/LA/PG (antibody, V domains shown)
VH: QKQLVESGGRLVTPGTPLTLTCTVSGFSLSSYAMGWFRQAPGKGLEWIGIINSYGSTYYASWAKGRFTISKTSTTVDLKITSPTTEDTATYFCGRRIGSARFDPWGPGTLVTVSS
VL: B2 VL with R30S, F48Y, S52R, D68N, N96S, Q98R, Y99L
notes: Fc-silenced (L234A/L235A/P329G) IgG1, lambda; Alexa Fluor 647-labeled in single-step flow cytometry; Prototype of cluster C-45
B8: HW-28 chimeric rabbit-human IgG1 LA/LA/PG (antibody, V domains shown)
VH: QKQLVESGGRLVTPGTPLTLTCTASGFSLSSNAMSWVRQAPGEGLQWIGTISSGGSTYYASWAKGRFTISKTSTTVTLKMTSLTTEDTATYFCARGADLHRLWGPGTLVTVSS
VL: B2 VL with A24G, D25K, T26P, R30S, Y31F, L46V, F48Y, D68N, N96S
notes: Fc-silenced (L234A/L235A/P329G) IgG1, lambda; Alexa Fluor 647-labeled in single-step flow cytometry; Cluster C-45
B9: HW-8 chimeric rabbit-human IgG1 LA/LA/PG (antibody, V domains shown)
VH: QSLEESGGRLVTPGTPLTLTCTVSGFSLSSYAMSWVRQAPGKGLEWIGAISTGGSTTYASWAKGRFTISKTSSTTVDLKMTSLTTEDTATYFCVRHFRLWGPGTLVTISS
VL: QVLTQTPSSVSAAVGGTVTIKCQASQSIGSALAWFQQKPGQRPKLLIYRASNLASGVPSRFKGSGSGTEFALTISGVQREDAATYYCLGGAAAVWAFGAGTNVEIKR
notes: as for B1
B10: HW-81 chimeric rabbit-human IgG1 LA/LA/PG (antibody, V domains shown)
VH: QKQLVESGGGLVTPGGTLTLTCTVSGFSLSSNGVSWVRQAPGKGLEYIGLIRSIGSTYYATWAKGRFTISKTSTTVDLKITSPTTEDTATYFCARGGYRNGFKLWGPGTLVTVSS
VL: QPVLTQSPSVSAALGASAKLTCTLSSAHKTYYIEWYQQQHPGKAPRYLMQLQSDGSYTKGTGVPDRFSGSSSGADRYLIISSVQAEDEADYICGVIDSAVYVFGGGTQLTVTG
notes: as for B8
B11: HW-16 chimeric rabbit-human IgG1 LA/LA/PG (antibody, V domains shown)
VH: QSLEESGGRLVTPGTPLTLTCTASGFSLSSYAMSWVRQAPGKGLEWIGTMPTGGGTYYASWAKGRFTISKTSTTVDLQITSPTTEDTATYFCAKHWNIWGPGTLVTISS
VL: DIVLTQTPSSTSTAVGDTVTINCRASQSIGRNLAWFQQKPGQPPKLLIYRASNLASGVPSRFKGSGSRTQFTLTISGVQREDAATYYCLGSYSSSDTAFGGGTELEILR
notes: as for B1

Assays:
[1] = biological target: T1, GARS, endogenous in H929 multiple …; experiment: flow cytometry, H929 + NT Green siRNA; None 1.35; surface target GARS putative
DCC = biological target: T2, DCC; experiment: ELISA on coated protein
Protocol: (§1) Recombinant purified ECDs (50-150 ng) of each putative target protein were coated, incubated with 150 ng of the indicated primary antibody, and binding was detected using a peroxidase-conjugated anti-human Fab secondary antibody. Heatmap represents averages of technical triplicates. (8B) Target validation via siRNA knockdown. H929 cells were transfected with siRNA pools targeting the putative antibody targets ICAM1, CADM1, and PTPRG. Cells were then subjected to cognate IgG binding analysis via flow cytometry. (NT, non-targeting siRNA).
(§2) ELISA ELISA was conducted as described previously. Briefly, 50-150 ng of antigen was coated overnight in half-area 96-well plates at 4° C., blocked with 3% BSA at 37° C. for 1 h, and 150 ng of chimeric rabbit/human IgG1 was added, incubating for 2 h at 37° C. […] After incubating at 37° C. for 15 min-1 h (depending on intensity of controls), data were acquired using a SpectraMax M5 plate reader (Molecular Devices).

ANXA1 = biological target: T3, ANXA1; experiment: ELISA on coated protein
Protocol: as §1, §2

[2] = biological target: T4, GARS-His (Sino Biological); experiment: ELISA on coated protein
Protocol: as §1, §2

ICAM1-Fc (R&D Systems) = biological target: T5, ICAM1-Fc (R&D Systems) (human, UniProt P05362 28-480); experiment: ELISA on coated protein
T5 construct: Bought; also called ICAM-1/CD54; not shown: Fc of the bought fusion protein
Protocol: as §1, §2

T5 sequence (P05362 28-480): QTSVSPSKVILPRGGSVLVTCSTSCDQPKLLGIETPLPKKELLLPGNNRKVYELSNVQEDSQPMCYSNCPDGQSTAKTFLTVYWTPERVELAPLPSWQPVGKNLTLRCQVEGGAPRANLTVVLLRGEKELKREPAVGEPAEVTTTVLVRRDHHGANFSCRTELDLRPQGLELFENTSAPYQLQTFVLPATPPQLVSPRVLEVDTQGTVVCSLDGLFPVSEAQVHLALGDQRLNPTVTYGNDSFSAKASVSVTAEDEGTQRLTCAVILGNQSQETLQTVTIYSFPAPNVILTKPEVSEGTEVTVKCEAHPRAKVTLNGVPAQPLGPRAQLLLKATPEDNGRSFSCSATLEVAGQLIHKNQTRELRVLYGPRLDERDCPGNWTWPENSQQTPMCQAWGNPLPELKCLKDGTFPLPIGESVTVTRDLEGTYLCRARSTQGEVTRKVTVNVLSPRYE

Binder	Cells stained (%) [1] [%]	binding result (DCC)	binding result (ANXA1)	binding result [2]	binding result (ICAM1-Fc (R&D Systems))
B1	99.7	–	–	–	–
B2	–	no binding (tested: 150 ng IgG1 per well)	no binding (tested: 150 ng IgG1 per well)	–	–
B3	–	no binding (tested: 150 ng IgG1 per well)	no binding (tested: 150 ng IgG1 per well)	no binding (tested: 150 ng IgG1 per well)	–
B4	–	no binding (tested: 150 ng IgG1 per well)	no binding (tested: 150 ng IgG1 per well)	–	–
B5	–	no binding (tested: 150 ng IgG1 per well)	no binding (tested: 150 ng IgG1 per well)	–	–
B6	–	no binding (tested: 150 ng IgG1 per well)	no binding (tested: 150 ng IgG1 per well)	no binding (tested: 150 ng IgG1 per well)	no binding (tested: 150 ng IgG1 per well)
B7	97.9	–	–	–	–
B8	98.5	–	–	–	–
B9	86.6	no binding (tested: 150 ng IgG1 per well)	no binding (tested: 150 ng IgG1 per well)	–	no binding (tested: 150 ng IgG1 per well)
B10	99.7	–	–	–	–
B11	99.1	–	–	–	–
